We go through four molecules from PMC8809517, “Cofactor-independent RNA editing by a synthetic S-type PPR protein”.

What all share (assay): high-throughput RNA pulldown from lysate on Ni-NTA beads; HRP: 50 mM Tris pH 8, 150 mM NaCl, 1 mM beta-mercaptoethanol, 50 ug/ml BSA, 3 ug/ml yeast RNA, 0.5% heparin; ITC and FP: Tris pH 8, 200 mM KCl, 5% glycerol; MST: 50 mM Tris pH 8, 200 mM NaCl, 1 mM DTT, BSA, heparin, 0.05% Tween 20
What all share (conditions): tags: N-terminal His-eGFP

For data set [1], the target named is T1, GFP-9S library array, motif 4 ND N98C;D124R (synthetic construct, N98C;D124R).
T1 chain: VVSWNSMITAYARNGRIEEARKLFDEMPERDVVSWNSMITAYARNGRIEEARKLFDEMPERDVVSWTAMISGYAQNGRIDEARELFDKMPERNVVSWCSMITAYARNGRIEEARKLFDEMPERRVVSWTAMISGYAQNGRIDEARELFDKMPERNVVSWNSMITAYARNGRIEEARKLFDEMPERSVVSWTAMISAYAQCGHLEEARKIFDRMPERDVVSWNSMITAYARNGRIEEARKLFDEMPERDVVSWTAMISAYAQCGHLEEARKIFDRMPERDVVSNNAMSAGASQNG

Data set [2] has as its target T2, GFP-9S library array, motif 4 ND N98K;D124Q (synthetic construct, N98K;D124Q).
T2 chain: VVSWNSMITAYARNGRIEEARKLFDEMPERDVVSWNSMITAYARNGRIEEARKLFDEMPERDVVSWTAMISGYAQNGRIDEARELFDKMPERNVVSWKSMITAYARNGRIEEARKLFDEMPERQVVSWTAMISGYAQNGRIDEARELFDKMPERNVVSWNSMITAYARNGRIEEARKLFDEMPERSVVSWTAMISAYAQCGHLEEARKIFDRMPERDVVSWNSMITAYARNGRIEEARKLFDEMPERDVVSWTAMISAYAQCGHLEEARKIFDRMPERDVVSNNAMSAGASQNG

In data set [3] the target is T3, GFP-9S library array, motif 4 ND N98V;D124L (synthetic construct, N98V;D124L).
T3 chain: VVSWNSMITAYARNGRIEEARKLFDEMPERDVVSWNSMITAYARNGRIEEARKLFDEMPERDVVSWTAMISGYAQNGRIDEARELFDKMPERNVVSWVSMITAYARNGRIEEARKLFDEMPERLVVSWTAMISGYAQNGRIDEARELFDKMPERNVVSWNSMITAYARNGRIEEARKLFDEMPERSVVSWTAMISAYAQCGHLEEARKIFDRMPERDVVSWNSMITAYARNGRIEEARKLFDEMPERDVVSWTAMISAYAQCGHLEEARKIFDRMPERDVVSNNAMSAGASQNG

In data set [4] the target is T4, GFP-9S library array, motif 4 ND N98G;D124G (synthetic construct, N98G;D124G).
T4 chain: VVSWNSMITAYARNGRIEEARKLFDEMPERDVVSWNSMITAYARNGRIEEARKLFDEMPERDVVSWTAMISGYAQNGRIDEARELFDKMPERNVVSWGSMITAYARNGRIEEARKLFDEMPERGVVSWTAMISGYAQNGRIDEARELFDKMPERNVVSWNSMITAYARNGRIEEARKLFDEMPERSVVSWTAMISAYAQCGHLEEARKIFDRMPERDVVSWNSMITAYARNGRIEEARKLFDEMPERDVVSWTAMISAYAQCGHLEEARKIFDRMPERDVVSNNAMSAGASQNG

For data set [5], the target named is T5, GFP-9S library array, motif 4 ND N98I;D124H (synthetic construct, N98I;D124H).
T5 chain: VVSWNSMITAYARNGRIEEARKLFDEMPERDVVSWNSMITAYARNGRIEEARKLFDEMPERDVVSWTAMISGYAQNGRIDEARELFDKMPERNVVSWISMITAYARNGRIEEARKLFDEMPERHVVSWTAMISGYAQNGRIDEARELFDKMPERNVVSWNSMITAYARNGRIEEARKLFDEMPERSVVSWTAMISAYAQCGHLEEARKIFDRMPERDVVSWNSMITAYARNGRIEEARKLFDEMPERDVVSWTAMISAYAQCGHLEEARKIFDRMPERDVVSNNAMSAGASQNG

AUUAGACGUGA (ssRNA) [Cy5-rpoA-G]: the Kd (in general, the constant that tells how readily two partners part at equilibrium) in data set [1] (label: 5' Cy5) was 54.9 nM; in data set [2] (label: 5' Cy5), 81.3 nM; in data set [3] (label: 5' Cy5), 112 nM; in data set [4] (label: 5' Cy5), 95.2 nM; in data set [5] (label: 5' Cy5), 107 nM.
Take AUUAAACGUGA (ssRNA) [IR-rpoA-A]: the Kd came out at 44.5 nM in data set [1] (label: 5' IRDye 800CW); 110 nM in data set [2] (label: 5' IRDye 800CW); 199 nM in data set [3] (label: 5' IRDye 800CW); 49.9 nM in data set [4] (label: 5' IRDye 800CW); 167 nM in data set [5] (label: 5' IRDye 800CW).
Turning to AUUACACGUGA (ssRNA) [Cy5-rpoA], the Kd amounted to 160 nM in data set [1] (label: 5' Cy5); 71.3 nM in data set [2] (label: 5' Cy5); 88.5 nM in data set [3] (label: 5' Cy5); 92 nM in data set [4] (label: 5' Cy5); 147 nM in data set [5] (label: 5' Cy5).
For the molecule AUUAUACGUGA (ssRNA) [IR-rpoA-U], the Kd in data set [1] (label: 5' IRDye 800CW) was 96.8 nM; in data set [2] (label: 5' IRDye 800CW), 63.7 nM; in data set [3] (label: 5' IRDye 800CW) it was 126 nM; in data set [4] (label: 5' IRDye 800CW) it was 95.3 nM; in data set [5] (label: 5' IRDye 800CW) it was 243 nM.
